Laboratory results published in US20180296696A1 (SANFORD BURNHAM PREBYS MEDICAL DISCOVERY INSTITUTE, published 2018).
No end group written: not given here.

Tests used:
Tenascin-R (mouse) [1] = target: Tenascin-R (mouse) (UniProt Q8BYI9); assay: peptide-affinity chromatography of PBI mouse brain lysate, LC-MS/MS
[2] = target: Hyaluronan and proteoglycan link protein 4 (mouse) (UniProt Q80WM4); assay: peptide-affinity chromatography of PBI mouse brain lysate, elution with free CAQK, LC-MS/MS
Versican core protein [3] = target: T1, Versican core protein (mouse, UniProt Q62059 24-3357, limits assumed); assay: as above
T1 construct: Native chondroitin sulfate proteoglycan from brain lysate, identified by LC-MS/MS against the Mus musculus UniProt database; also called VCAN

Tenascin-R (mouse) [4] = target: Tenascin-R (mouse) (UniProt Q8BYI9); assay: as above
Versican core protein [5] = target: T1, Versican core protein; assay: peptide-affinity chromatography of PBI mouse brain lysate, LC-MS/MS (empty column denotes protein was not detected)
Method: (§1) Affinity Chromatography and Proteomics. For identifying CAQK binding proteins, mouse brains with brain injury were collected 6 hrs after injury. Using liquid nitrogen, the brains were crushed and ground into powder using a mortar and pestle. Next, brain tissue was lysed in PBS containing 200 mM n-octyl-beta-D-glucopyranoside and protease inhibitor cocktail (Roche) as described (Teesalu et al., PNAS 16157-16162 (2009)). The cleared lysate was loaded on to CAQK or control peptide (CGGK) coated Sulfolink-agarose beads (Pierce, Waltham, Mass.) and incubated at 4° C. for 3-4 hrs. The column was washed with wash buffer (75 mM octyl-beta-D-glucopyranoside and protease inhibitor cocktail in PBS) followed by washing with 0.5 mM control peptide in wash buffer to remove nonspecifically bound proteins. The bound proteins were eluted with 2 mM free CAQK peptide. The eluted factions were pooled, their protein concentration determined by using bicinchoninic acid (BCA) protein assay (Thermo Fischer) and the samples were digested using the Filter-aided Sample Preparation (FASP) method (Wisniewski et al., Nat Methods 6:359-362 (2009)). […] All mass spectra were analyzed with MaxQuant software version 1.5.0.25. […] Empty column denotes protein was not detected.

[6] = target: T2, Hyaluronan and proteoglycan link protein 4 (mouse, UniProt Q80WM4 31-400); assay: as above
T2 construct: Native protein from brain lysate, identified by LC-MS/MS; also called Hapln4; HAPLN4
Method: as §1

T1 sequence (Q62059 24-3357 limits assumed): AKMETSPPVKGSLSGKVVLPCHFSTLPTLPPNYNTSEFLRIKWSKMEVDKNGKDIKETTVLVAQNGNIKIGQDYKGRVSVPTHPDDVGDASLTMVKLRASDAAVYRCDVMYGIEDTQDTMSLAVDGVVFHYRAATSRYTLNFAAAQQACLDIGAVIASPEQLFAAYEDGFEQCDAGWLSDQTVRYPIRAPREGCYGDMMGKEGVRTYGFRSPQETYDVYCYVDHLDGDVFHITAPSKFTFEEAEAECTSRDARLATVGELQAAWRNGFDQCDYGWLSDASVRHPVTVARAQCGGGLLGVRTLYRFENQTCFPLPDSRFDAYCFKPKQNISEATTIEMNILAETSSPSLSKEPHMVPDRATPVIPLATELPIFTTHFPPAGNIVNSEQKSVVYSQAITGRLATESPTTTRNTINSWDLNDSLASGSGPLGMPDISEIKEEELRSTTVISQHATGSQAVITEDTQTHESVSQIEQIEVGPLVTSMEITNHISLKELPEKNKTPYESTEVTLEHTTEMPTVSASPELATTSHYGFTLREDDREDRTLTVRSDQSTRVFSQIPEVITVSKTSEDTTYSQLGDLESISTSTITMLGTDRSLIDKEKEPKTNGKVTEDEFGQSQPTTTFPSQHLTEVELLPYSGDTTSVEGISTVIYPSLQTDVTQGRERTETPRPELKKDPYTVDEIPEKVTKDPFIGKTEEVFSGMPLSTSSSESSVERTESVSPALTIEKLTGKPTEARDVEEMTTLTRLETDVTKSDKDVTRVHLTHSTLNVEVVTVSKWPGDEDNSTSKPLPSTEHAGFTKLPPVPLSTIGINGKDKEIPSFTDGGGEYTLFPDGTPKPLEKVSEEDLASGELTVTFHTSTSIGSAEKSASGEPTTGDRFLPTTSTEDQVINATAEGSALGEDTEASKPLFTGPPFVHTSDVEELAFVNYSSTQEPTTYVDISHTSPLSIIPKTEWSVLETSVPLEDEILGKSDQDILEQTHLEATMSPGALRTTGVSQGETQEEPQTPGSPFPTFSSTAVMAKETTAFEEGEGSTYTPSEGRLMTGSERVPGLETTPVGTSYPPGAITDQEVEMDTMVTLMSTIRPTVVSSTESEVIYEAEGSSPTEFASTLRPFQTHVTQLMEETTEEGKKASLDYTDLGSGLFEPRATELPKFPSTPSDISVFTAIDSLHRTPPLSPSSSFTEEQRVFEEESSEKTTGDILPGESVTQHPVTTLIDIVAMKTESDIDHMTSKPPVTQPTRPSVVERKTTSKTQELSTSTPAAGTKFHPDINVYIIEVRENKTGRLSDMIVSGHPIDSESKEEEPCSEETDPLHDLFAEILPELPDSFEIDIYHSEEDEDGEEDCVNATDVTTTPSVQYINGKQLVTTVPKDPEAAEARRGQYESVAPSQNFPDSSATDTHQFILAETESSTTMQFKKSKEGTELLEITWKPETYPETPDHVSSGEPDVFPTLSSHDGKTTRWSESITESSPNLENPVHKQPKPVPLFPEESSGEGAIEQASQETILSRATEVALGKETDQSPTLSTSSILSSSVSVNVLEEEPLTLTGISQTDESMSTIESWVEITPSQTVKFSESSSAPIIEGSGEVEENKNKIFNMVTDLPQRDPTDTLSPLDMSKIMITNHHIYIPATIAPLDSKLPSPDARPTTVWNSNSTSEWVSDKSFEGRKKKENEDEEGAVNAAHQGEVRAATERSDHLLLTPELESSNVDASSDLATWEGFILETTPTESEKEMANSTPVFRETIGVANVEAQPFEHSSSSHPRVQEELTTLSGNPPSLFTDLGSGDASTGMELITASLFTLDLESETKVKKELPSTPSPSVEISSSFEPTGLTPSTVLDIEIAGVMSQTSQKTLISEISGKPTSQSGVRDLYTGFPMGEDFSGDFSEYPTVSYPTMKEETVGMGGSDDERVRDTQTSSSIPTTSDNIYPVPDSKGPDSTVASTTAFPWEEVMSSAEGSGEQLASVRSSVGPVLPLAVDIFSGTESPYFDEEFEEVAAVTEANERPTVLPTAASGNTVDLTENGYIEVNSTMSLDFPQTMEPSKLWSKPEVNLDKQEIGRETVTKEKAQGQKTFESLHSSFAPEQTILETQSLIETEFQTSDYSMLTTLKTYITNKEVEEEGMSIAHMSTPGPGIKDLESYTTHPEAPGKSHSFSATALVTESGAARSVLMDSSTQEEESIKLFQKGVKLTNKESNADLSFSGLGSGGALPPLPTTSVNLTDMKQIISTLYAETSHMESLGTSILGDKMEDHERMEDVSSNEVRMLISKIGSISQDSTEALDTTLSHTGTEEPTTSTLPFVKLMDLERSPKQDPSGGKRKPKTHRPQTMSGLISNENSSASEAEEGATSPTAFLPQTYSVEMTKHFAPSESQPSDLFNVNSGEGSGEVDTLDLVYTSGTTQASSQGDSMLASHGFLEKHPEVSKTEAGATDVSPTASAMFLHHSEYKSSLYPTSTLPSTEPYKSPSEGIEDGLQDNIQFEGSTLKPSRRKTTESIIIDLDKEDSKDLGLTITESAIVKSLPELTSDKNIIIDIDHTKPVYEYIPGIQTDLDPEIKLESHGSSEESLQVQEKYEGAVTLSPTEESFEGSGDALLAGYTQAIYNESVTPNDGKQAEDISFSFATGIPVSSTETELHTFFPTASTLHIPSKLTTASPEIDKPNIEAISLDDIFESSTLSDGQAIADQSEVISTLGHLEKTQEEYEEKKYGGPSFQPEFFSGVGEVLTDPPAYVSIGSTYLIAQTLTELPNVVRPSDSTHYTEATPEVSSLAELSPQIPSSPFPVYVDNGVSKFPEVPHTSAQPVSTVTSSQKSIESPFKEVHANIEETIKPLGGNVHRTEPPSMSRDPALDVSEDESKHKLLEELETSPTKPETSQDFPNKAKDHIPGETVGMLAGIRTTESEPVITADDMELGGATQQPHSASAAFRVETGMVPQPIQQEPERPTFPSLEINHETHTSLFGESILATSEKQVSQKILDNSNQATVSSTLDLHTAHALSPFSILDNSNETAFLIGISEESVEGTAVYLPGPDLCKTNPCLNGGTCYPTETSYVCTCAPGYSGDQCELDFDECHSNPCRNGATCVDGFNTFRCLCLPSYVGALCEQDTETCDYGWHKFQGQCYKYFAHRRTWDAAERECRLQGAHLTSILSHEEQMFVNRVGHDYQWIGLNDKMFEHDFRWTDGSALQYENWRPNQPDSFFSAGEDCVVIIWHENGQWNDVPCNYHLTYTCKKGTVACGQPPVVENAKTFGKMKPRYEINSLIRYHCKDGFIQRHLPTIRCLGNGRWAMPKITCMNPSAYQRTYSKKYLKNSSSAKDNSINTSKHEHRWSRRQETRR
Chain of Tenascin-R (mouse) (Q8BYI9 32-1358 limits assumed): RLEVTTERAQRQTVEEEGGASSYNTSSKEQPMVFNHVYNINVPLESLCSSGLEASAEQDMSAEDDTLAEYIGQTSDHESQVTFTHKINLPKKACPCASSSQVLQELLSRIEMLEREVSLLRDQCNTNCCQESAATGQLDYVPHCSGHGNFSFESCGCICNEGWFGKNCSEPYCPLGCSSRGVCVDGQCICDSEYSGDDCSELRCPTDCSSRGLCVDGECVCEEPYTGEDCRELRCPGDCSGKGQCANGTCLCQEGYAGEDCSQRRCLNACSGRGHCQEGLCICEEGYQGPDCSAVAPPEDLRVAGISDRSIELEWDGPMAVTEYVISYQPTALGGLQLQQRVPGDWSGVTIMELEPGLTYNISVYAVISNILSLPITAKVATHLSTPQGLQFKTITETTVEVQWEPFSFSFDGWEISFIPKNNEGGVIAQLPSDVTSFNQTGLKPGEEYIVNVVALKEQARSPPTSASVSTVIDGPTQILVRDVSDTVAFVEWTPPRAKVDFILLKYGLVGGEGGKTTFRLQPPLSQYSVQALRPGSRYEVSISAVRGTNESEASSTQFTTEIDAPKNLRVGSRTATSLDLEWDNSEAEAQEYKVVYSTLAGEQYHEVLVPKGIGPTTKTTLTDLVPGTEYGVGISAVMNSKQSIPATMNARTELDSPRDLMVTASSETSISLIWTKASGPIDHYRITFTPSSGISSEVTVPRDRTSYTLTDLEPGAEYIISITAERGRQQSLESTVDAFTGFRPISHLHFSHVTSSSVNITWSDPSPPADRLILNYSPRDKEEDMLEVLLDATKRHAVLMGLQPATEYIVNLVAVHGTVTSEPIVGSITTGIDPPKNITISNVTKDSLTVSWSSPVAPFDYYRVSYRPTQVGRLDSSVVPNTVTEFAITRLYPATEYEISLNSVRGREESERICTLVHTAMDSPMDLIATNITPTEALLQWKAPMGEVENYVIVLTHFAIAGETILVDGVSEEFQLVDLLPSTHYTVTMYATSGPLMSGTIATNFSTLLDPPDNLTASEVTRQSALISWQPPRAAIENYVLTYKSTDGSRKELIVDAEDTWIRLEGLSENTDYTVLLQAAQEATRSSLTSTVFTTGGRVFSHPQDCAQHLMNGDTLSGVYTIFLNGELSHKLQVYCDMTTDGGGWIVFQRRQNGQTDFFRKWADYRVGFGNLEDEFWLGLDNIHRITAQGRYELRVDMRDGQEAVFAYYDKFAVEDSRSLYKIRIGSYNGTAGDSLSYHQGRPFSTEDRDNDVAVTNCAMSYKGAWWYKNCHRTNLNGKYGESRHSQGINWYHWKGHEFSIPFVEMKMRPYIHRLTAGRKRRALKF
Chain of Hyaluronan and proteoglycan link protein 4 (mouse) (Q80WM4 31-400 limits assumed): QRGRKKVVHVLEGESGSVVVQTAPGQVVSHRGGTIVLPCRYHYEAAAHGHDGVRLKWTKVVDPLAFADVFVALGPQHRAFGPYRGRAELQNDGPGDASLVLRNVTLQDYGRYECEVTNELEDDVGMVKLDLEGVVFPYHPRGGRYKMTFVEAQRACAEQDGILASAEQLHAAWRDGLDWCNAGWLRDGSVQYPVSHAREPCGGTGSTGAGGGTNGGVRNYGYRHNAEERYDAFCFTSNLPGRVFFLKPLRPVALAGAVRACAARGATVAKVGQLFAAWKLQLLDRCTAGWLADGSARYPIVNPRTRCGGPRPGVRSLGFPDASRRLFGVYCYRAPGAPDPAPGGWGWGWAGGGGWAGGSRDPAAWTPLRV
T2 sequence (Q80WM4 31-400 limits assumed): as above

control peptide (CGGK)
Log2 LFQ intensity (log2 LFQ intensity) (Tenascin-R (mouse) [1]): 24.1

CAQK peptide
Log2 LFQ intensity (log2 LFQ intensity) [2]: 19.8
Log2 LFQ intensity (log2 LFQ intensity) (Versican core protein [3]): 26
Log2 LFQ intensity (log2 LFQ intensity) (Tenascin-R (mouse) [4]): 26.7

CGGK (not fully specified (N-terminus, C-terminus), also called CGGK column) [control peptide (CGGK)]
binding result (Versican core protein [5]): no binding
binding result [6]: no binding
